Results as given in PMC4661386.

Target: CUB_C (CUB module and C-terminal peptide from human TSG-6), wild type (human) (UniProt P98066)
Assay: SPR; CUB_C (WT or E183S) amine-coupled to a CM5 chip (~1000 RU); rHC1 (WT or D298A) injected at 30 ul/min in 20 mM HEPES, 150 mM NaCl, 0.05% Tween 20, pH 7.4 (HBS-T), no EDTA (as purified CUB_C contains Ca2+); multicycle kinetics, 1:1 Langmuir model

Kd: 2.1 nM
B1: Recombinant human heavy chain 1 (rHC1) of inter-alpha-inhibitor, wild type (natural protein)
chain: SKSSEKRQAVDTAVDGVFIRSLKVNCKVTSRFAHYVVTSQVVNTANEAREVAFDLEIPKTAFISDFAVTADGNAFIGDIKDKVTAWKQYRKAAISGENAGLVRASGRTMEQFTIHLTVNPQSKVTFQLTYEEVLKRNHMQYEIVIKVKPKQLVHHFEIDVDIFEPQGISKLDAQASFLPKELAAQTIKKSFSGKKGHVLFRPTVSQQQSCPTCSTSLLNGHFKVTYDVSRDKICDLLVANNHFAHFFAPQNLTNMNKNVVFVIDISGSMRGQKVKQTKEALLKILGDMQPGDYFDLVLFGTRVQSWKGSLVQASEANLQAAQDFVRGFSLDEATNLNGGLLRGIEILNQVQESLPELSNHASILIMLTDGDPTEGVTDRSQILKNVRNAIRGRFPLYNLGFGHNVDFNFLEVMSMENNGRAQRIYEDHDATQQLQGFYSQVAKPLLVDVDLQYPQDAVLALTQNHHKQYYEGSEIVVAGRIADNKQSSFKADVQAHGEGQEFSITCLVDEEEMKKLLRERGHMLENHVERLWAYLTIQELLAKRMKVDREERANLSSQALQMSLDYGFVTPLTSMSIRGMADQDGLKPTIDKPSEDSPPLEMLGPRRTFVLSALQPSPTHSSSNTQRLPDRVTGVDTD
